Test results published in the RNAGym collection of RNA variant scans (doi:10.7554/elife.80360).

B1: Hairpin Ribozyme (parent)
chain: GUCCUCUUUCACGUGCGCGUGAAAGAGAGAAGUGAACCAGAGAAACACACGUUGUGGUAUAUUACCUGGUA

Variants of: B1
Experiment: self-cleavage, relative activity (ratio to wild type); higher = more cleavage; co-transcriptional

Row | Variant | self-cleavage
1 | A11U U52G | 0.362
2 | C37U C65A | 0.533
3 | U8G G34C | 1.19
4 | U8G G40A | 0.264
5 | C3A A28U | 0.689
6 | C6U A41C | 1.16
7 | C3G A41G | 0.193
8 | C4U G21A | 0.389
9 | C10G U60G | 0.442
10 | A26U U53A | 0.474
11 | G27A U62G | 0.221
12 | C12G U20G | 0.798
13 | U2C A36G | 0.212
14 | A11C A28G | 0.951
15 | G25U A71C | 1.08
16 | C16G A44U | 0.16
17 | A47G U62C | 0.0615
18 | U7G G56C | 0.0943
19 | U52G U58A | 0.452
20 | G15U G56A | 0.187
21 | C18G G51A | 0.933
22 | U2A U53A | 0.303
23 | A39U G69A | 0.157
24 | A45U C50A | 0.145

Row | Variant | self-cleavage
25 | C50U A61C | 0.181
26 | G17U G29A | 0.105
27 | G25C A43U | 0.243
28 | G13C C16U | 0.573
29 | A39G U63A | 0.111
30 | G40U A43G | 0.134
31 | C16A A59U | 0.212
32 | G32C U53C | 0.155
33 | U5A U60G | 0.29
34 | C37G A71U | 0.216
35 | G27C C38U | 0.131
36 | C10U | 0.775
37 | G27A U60G | 0.213
38 | G21C C38U | 0.452
39 | C18G A35G | 1.24
40 | U2C G57A | 0.175
41 | U7A C18G | 0.802
42 | A28G C46U | 0.137
43 | U8C G29U | 0.081
44 | U33C G40C | 0.0896
45 | A11C U63G | 0.134
46 | G21C G29U | 0.316
47 | C4G U20G | 0.22
48 | G51A U62C | 0.364

Row | Variant | self-cleavage
49 | U52A U70G | 0.86
50 | U7G U53G | 0.641
51 | A49G G54C | 0.277
52 | U8A G42A | 0.129
53 | U20A A36U | 0.497
54 | G34A G42C | 0.516
55 | A28G G56C | 0.0641
56 | U2C A11U | 0.197
57 | G27C A39C | 0.0945
58 | C10U G40U | 0.203
59 | C10U G40C | 0.138
60 | G15U U63G | 0.108
61 | U9C A23G | 0.814
62 | G1A A22C | 0.11
63 | G51C A59U | 0.172
64 | G51C U60G | 0.62
65 | U8G A31G | 0.47
66 | C10U A28C | 0.305
67 | U7A G15A | 0.909
68 | A23U G29A | 0.145
69 | U7C G34A | 1.17
70 | U53A A64U | 0.143
71 | A47U A59C | 0.164
72 | G32C G51C | 0.0912

Row | Variant | self-cleavage
73 | G15U G34C | 1.33
74 | G1A C16U | 0.217
75 | A22U G69U | 0.259
76 | C16G U33C | 0.188
77 | A35G U70C | 0.796
78 | C10A C65A | 0.556
79 | U2A G19C | 0.106
80 | A39U C46A | 0.166
81 | U63G | 0.171
82 | U20A A22U | 0.849
83 | G15U A36U | 0.606
84 | C3G C6A | 0.267
85 | A24C G34C | 1.07
86 | C12A A24C | 0.914
87 | A35U A47U | 0.185
88 | G25A G40A | 0.191
89 | G29C U53C | 0.252
90 | A44G G51U | 0.175
91 | C16U G42U | 0.34
92 | A36G G54U | 0.816
93 | G13A U52G | 0.5
94 | U7G A24U | 0.685
95 | G13U U62G | 0.102
96 | A23C U62G | 0.0867

Row | Variant | self-cleavage
97 | C50U G51U | 0.424
98 | A31G C66A | 0.127
99 | G42U U63A | 0.195
100 | G17A A45U | 0.13
101 | G1U G15C | 0.0726
102 | A22C A47U | 0.208
103 | G32C A45U | 0.121
104 | C6A G42U | 0.223
105 | A64G U67C | 0.122
106 | U8A C16U | 0.788
107 | C38U C50G | 0.0694
108 | C3A G19A | 0.59
109 | U20A G68A | 0.332
110 | C18U A43G | 0.103
111 | C48U A49G | 0.153
112 | C10A U52A | 0.783
113 | G40A U60G | 0.214
114 | G27A A28G | 0.36
115 | G13A G21U | 0.742
116 | C12A A49U | 0.256
117 | A47G C48G | 0.121
118 | U5C A43U | 0.0569
119 | C6G U53A | 0.585
120 | U14A A23C | 0.789

Row | Variant | self-cleavage
121 | U55A G69U | 0.146
122 | C4U C50G | 0.11
123 | A23U A41C | 0.798
124 | G27U U62G | 0.0869
125 | U20A U62A | 0.239
126 | A23U U53C | 0.935
127 | G1A A26G | 0.149
128 | G13U A28U | 0.546
129 | G15A G32C | 0.174
130 | A22C C46U | 0.141
131 | U52G G57U | 0.232
132 | C6A G34U | 1
133 | A43U A59U | 0.204
134 | G15C C18A | 1.18
135 | C38U U62C | 0.273
136 | G13C A24C | 0.466
137 | G29C A36C | 0.179
138 | U9G A39U | 0.158
139 | A26U G68C | 0.103
140 | C16U G68U | 0.329
141 | G13U G51A | 0.745
142 | G21C G68U | 0.289
143 | G29U U58A | 0.154
144 | G19C A31U | 0.0995

Row | Variant | self-cleavage
145 | G19A U67C | 0.186
146 | C10A A71G | 0.915
147 | C10A A71C | 1.16
148 | G32U C46A | 0.272
149 | G13A G69A | 0.368
150 | A44U A61C | 0.0833
151 | U8G U62C | 0.332
152 | C46A A47U | 0.199
153 | U20G A31G | 0.581
154 | G29C C46A | 0.111
155 | U7C U8C | 0.52
156 | U7G A61C | 0.261
157 | U20G A64C | 0.184
158 | G13C A30G | 0.114
159 | A11U A31C | 0.152
160 | G21U A41U | 1.24
161 | U2C G56C | 0.166
162 | A30U A31U | 0.149
163 | U60A U63G | 0.136
164 | U14C U60G | 0.727
165 | C38A G68C | 0.137
166 | C12G A49C | 0.196
167 | C16G A43U | 0.157
